Data published in US20240158831A1 (PROMEGA, published 2024).

Biological target: the molecule itself
Assay: gel filtration chromatography (Superdex 200 5/150 GL), self-association
Excerpt: Gel filtration analysis was used to verify the expected molecular weight of the purified OgLuc proteins based on the theoretical values and consequently to determine their oligomeric state. A comparison between the relative hydrodynamic volume of the OgLuc variants C1+A4E and 9B8 was made by gel filtration chromatography. For this analysis, the nucleotide sequence for the OgLuc variants, C1+A4E and 9B8, were cloned into a HQ-Tagged FLEXI® Vector (Promega Corp.) to create a HQHQHQ N-terminally tagged protein that was overexpressed in E. coli KRX cells. The overexpressed proteins were purified using the HISLINK™ Protein Purification System (Promega Corp.) according to manufacturer's instructions. Samples of each individual standard and sample protein were analyzed by gel filtration chromatography, which was performed at 24° C. on an Agilent 1200 HPLC, using a Superdex 200 5/150 GL column (GE Healthcare) with a flow rate of 0.25 mL/min (FIGS. 43A-B). The mobile phase (i.e., running buffer) consisted of 50 mM Tris and 150 mM NaCl, pH 7.5. Protein elution was monitored at 214 and 280 nm. A standard calibration curve was generated using: 1) Ovalbumin, 43 kDa (GE Healthcare), 2) Carbonic Anhydrase, 29 kDa (Sigma) and 3) Myoglobin, 17 kDa (Horse Heart, Sigma). The molecular weights of the purified proteins were calculated directly from the calibration curve.
The relative hydrodynamic volume of the L27V variant was made by gel filtration chromatography. For this analysis, the nucleotide sequence for the L27V variant was cloned into a HaloTag® vector pFN18A (Promega Corp.) to create a HaloTag®-terminally tagged protein that was overexpressed in E. coli KRX cells (Promega Corp.). The overexpressed protein was purified using the HaloTag® Protein Purification System (Promega Corp.) according to manufacturer's instructions. Samples of each individual standard and sample protein were analyzed by gel filtration chromatography performed at 24° C. on an Agilent 1200 HPLC using a Superdex 200 5/150 GL column (GE Healthcare) with a flow rate of 0.25 mL/min (FIG. 56).

| Protein | binding result |
| --- | --- |
| OgLuc variant L27V (9B8 opt+K33N+L27V+T39T+K43R+Y68D) (enzyme, Expressed as a HaloTag fusion (pFN18A) in E. coli KRX and purified with the HaloTag Protein Purification System; It eluted as a 24 kDa protein) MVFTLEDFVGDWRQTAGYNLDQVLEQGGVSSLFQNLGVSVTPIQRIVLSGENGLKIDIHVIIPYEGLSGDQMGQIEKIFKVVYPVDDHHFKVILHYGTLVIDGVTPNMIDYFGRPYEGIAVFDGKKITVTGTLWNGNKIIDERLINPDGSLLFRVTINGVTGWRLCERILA | no binding |
| OgLuc variant C1+A4E, HQHQHQ N-terminally tagged (enzyme, Purified from E. coli KRX with the HISLINK system) HQHQHQMVFTLEDFVGDWRQTAGYNQDQVLEQGGLSSLFQKLGVSVTPIQKIVLSGENGLKFDIHVIIPYEGLSGFQMGLIEMIFKVVYPVDDHHFKIILHYGTLVIDGVTPNMIDYFGRPYEGIAVFDGKKITVTGTLWNGNKIIDERLINPDGSLLFRVTINGVTGWRLCERILA | binds |
| OgLuc variant 9B8, HQHQHQ N-terminally tagged (enzyme, Purified from E. coli KRX with the HISLINK system) HQHQHQMVFTLEDFVGDWRQTAGYNLDQVLEQGGLSSLFQKLGVSVTPIQKIVLSGENGLKIDIHVIIPYEGLSGYQMGQIEKIFKVVYPVDDHHFKVILHYGTLVIDGVTPNMIDYFGRPYEGIAVFDGKKITVTGTLWNGNKIIDERLINPDGSLLFRVTINGVTGWRLCERILA | no binding |
